Laboratory results from patent publication US20240400614A1, “CLEAVABLE PEPTIDES AND METHODS OF USE THEREOF” (Bright Peak Therapeutics AG, priority 2023, published 2024).
Square brackets hold non-standard residues; d marks the D form. Ends that are not written are not given here. Tyr(3-NO2) = N[C@@H](Cc1ccc(O)c([N+](=O)[O-])c1)C(=O)O; Nle = CCCC[C@H](N)C(=O)O; 2Abz = Nc1ccccc1C(=O)O

Key:
Type in all cases: biochemical
MMP-9 = target: T1, MMP-9 (Homo sapiens, UniProt P14780); assay: FRET peptide cleavage efficiency with MMP-9 (standard pH 7.5; also pH 6.5)
T1 construct: purchased SIGMA PF024

matriptase = target: T2, matriptase (Homo sapiens, UniProt Q9Y5Y6); assay: FRET peptide cleavage efficiency with matriptase
T2 construct: purchased R&D Systems 3946-SEB
T2 sequence (Q9Y5Y6 615-855 limits assumed): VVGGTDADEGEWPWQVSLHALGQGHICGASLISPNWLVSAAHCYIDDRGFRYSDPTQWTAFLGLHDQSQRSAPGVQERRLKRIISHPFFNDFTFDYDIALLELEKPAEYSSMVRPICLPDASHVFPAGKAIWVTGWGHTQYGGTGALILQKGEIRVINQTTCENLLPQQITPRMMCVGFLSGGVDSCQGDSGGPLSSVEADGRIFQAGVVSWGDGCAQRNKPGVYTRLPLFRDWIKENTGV

MMP-2 = target: T3, MMP-2 (Homo sapiens, UniProt P08253); assay: FRET peptide cleavage efficiency with MMP-2
T3 construct: purchased SIGMA PF023
T3 sequence (P08253 110-660): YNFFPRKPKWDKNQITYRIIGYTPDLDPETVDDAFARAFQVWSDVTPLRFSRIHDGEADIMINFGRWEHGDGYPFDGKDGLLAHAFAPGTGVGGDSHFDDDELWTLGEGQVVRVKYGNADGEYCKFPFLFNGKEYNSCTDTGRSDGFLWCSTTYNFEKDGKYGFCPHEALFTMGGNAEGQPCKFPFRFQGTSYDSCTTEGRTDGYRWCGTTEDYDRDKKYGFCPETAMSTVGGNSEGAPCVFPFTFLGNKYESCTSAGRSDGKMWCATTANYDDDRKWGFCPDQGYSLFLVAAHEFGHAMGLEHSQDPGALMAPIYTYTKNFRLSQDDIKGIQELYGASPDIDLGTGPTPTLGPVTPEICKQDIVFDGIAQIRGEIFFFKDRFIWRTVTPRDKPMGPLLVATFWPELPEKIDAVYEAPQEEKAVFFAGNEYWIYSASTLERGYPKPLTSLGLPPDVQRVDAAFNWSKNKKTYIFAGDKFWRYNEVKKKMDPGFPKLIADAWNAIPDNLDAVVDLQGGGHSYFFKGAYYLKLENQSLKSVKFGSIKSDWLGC

uPA = uPA (Homo sapiens, UniProt P00749); assay: FRET peptide cleavage efficiency with uPA
MMP-7 = target: T4, MMP-7 (Homo sapiens, UniProt P09237); assay: FRET peptide cleavage efficiency with MMP-7 (standard pH 7.5; also pH 6.5)
T4 construct: purchased SIGMA CC1059
T4 sequence (P09237 95-267): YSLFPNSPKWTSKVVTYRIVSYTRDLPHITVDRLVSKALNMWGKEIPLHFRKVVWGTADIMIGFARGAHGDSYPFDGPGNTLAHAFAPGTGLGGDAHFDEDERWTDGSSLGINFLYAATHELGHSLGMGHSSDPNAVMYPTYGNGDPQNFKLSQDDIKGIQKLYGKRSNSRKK

[1] = t = 15 min, standard conditions (Table 8)
[2] = t = 60 min, standard conditions (Table 8)
[3] = t = 120 min, standard conditions (Table 8)

T1 sequence (P14780 94-707): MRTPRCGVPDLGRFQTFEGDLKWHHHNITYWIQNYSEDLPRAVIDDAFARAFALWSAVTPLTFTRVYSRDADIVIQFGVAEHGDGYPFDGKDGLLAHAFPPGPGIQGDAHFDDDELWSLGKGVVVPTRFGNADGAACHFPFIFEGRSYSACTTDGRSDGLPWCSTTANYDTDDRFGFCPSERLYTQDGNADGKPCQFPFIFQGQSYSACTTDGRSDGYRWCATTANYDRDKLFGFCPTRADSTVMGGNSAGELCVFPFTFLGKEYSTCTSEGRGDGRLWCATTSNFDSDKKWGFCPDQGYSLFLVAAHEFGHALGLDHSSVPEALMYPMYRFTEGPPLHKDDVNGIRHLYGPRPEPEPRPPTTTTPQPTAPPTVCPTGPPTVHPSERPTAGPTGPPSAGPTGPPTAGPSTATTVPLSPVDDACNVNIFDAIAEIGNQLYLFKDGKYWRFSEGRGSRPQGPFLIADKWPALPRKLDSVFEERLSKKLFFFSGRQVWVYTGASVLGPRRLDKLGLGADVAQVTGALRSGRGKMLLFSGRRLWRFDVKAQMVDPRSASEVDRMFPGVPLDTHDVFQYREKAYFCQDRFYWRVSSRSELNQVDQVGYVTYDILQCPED

“SGRVLRKAGPQPLVD ([2Abz]SGRVLRKAGPQPLVD[Tyr(3-NO2)]-NH2) [LNK003]” was tested, and the “% cleavage MMP-9 t = 15 min” value (MMP-9; t = 15 min (Table 9)) was 22%, the “% cleavage MMP-9 t = 60 min” value (MMP-9; t = 60 min (Table 9)) was 72% and the “% cleavage MMP-9 t = 120 min” value (MMP-9; t = 120 min (Table 9)) was 93%. The “% cleavage Matriptase t = 15 min” value (matriptase; pH 6.5, t = 15 min (Table 7)) was 48%, the “% cleavage Matriptase t = 60 min” value (matriptase; pH 6.5, t = 60 min (Table 7)) was 93% and the “% cleavage Matriptase t = 15 min” value (matriptase; pH 7.5, t = 15 min (Table 7)) was 98%. For the same substance, the “% cleavage Matriptase t = 60 min” value (matriptase; pH 7.5, t = 60 min (Table 7)) was 100%, the “% cleavage Matriptase t = 15 min” value (matriptase; t = 15 min, 200 uM linker, 1 ug/ml protease, 37° C., buffer B pH 9.0) was 96% and the “% cleavage Matriptase t = 60 min” value (matriptase; t = 60 min, 200 uM linker, 1 ug/ml protease, 37° C., buffer B pH 9.0) was 91%. The “% cleavage Matriptase t = 120 min” value (matriptase; 200 uM linker, 1 ug/ml protease, 37° C., buffer B pH 9.0) was 88%, the “% cleavage MMP-2 t = 15 min” value (MMP-2; pH 6.5, t = 15 min (Table 7)) was 5% and the “% cleavage MMP-2 t = 60 min” value (MMP-2; pH 6.5, t = 60 min (Table 7)) was 39%. The “% cleavage MMP-2 t = 15 min” value (MMP-2; pH 7.5, t = 15 min (Table 7)) was 6%, the “% cleavage MMP-2 t = 60 min” value (MMP-2; pH 7.5, t = 60 min (Table 7)) was 28% and the “% cleavage MMP-2 t = 15 min” value (MMP-2; t = 15 min (Table 9)) was 7%. The “% cleavage MMP-2 t = 15 min” value (MMP-2; t = 15 min, 200 uM linker, 1 ug/ml protease, 37° C., buffer C pH 7.5) was 8%, the “% cleavage MMP-2 t = 60 min” value (MMP-2; t = 60 min (Table 9)) was 34% and the “% cleavage MMP-2 t = 60 min” value (MMP-2; t = 60 min, 200 uM linker, 1 ug/ml protease, 37° C., buffer C pH 7.5) was 38%. The “% cleavage MMP-2 t = 120 min” value (MMP-2; t = 120 min (Table 9)) was 59%, the “% cleavage MMP-2 t = 120 min” value (MMP-2; t = 120 min, 200 uM linker, 1 ug/ml protease, 37° C., buffer C pH 7.5) was 65% and the “% cleavage uPA t = 60 min” value (uPA; pH 6.5, t = 60 min (Table 7)) was 0%. For the same substance, the “% cleavage uPA t = 120 min” value (uPA; pH 6.5, t = 120 min (Table 7)) was 0%, the “% cleavage uPA t = 60 min” value (uPA; pH 7.5, t = 60 min (Table 7)) was 0% and the “% cleavage uPA t = 120 min” value (uPA; pH 7.5, t = 120 min (Table 7)) was 0%. For the same substance, the “% cleavage uPA t = 15 min” value (uPA; t = 15 min, 200 uM linker, 1 ug/ml protease, 37° C., buffer A pH 8.5) was 3%, the “% cleavage uPA t = 60 min” value (uPA; t = 60 min, 200 uM linker, 1 ug/ml protease, 37° C., buffer A pH 8.5) was 10% and the “% cleavage uPA t = 120 min” value (uPA; t = 120 min, 200 uM linker, 1 ug/ml protease, 37° C., buffer A pH 8.5) was 20%. For the same substance, the “% cleavage MMP-7 t = 15 min” value (MMP-7; t = 15 min (Table 9)) was 19%, the “% cleavage MMP-7 t = 60 min” value (MMP-7; t = 60 min (Table 9)) was 62% and the “% cleavage MMP-7 t = 120 min” value (MMP-7; t = 120 min (Table 9)) was 86%.

“SGRVAPY-Nle-LQG ([2Abz]SGRVAPY[Nle]LQG[Tyr(3-NO2)]-NH2) [LNK043]” was tested, and the “% cleavage MMP-9 t = 15 min” value (MMP-9; t = 15 min (Table 9)) was 32%, the “% cleavage MMP-9 t = 15 min” value (MMP-9; [1]) was 32% and the “% cleavage MMP-9 t = 60 min” value (MMP-9; t = 60 min (Table 9)) was 93%. For the same substance, the “% cleavage MMP-9 t = 60 min” value (MMP-9; [2]) was 93%, the “% cleavage MMP-9 t = 120 min” value (MMP-9; t = 120 min (Table 9)) was 100% and the “% cleavage MMP-9 t = 120 min” value (MMP-9; [3]) was 100%. The “% cleavage Matriptase t = 15 min” value (matriptase; [1]) was 24%, the “% cleavage Matriptase t = 60 min” value (matriptase; [2]) was 73% and the “% cleavage Matriptase t = 120 min” value (matriptase; standard conditions (Table 8)) was 100%. For the same substance, the “% cleavage MMP-2 t = 15 min” value (MMP-2; t = 15 min (Table 9)) was 34%, the “% cleavage MMP-2 t = 60 min” value (MMP-2; t = 60 min (Table 9)) was 78% and the “% cleavage MMP-2 t = 60 min” value (MMP-2; [2]) was 78%. The “% cleavage MMP-2 t = 120 min” value (MMP-2; t = 120 min (Table 9)) was 91%, the “% cleavage MMP-2 t = 120 min” value (MMP-2; [3]) was 91% and the “% vcleavage uPA t = 15 min” value (uPA; [1]) was 0%. The “% cleavage uPA t = 60 min” value (uPA; [2]) was 0%, the “% cleavage uPA t = 120 min” value (uPA; [3]) was 0% and the “% cleavage MMP-7 t = 15 min” value (MMP-7; t = 15 min (Table 9)) was 61%. For the same substance, the “% cleavage MMP-7 t = 15 min” value (MMP-7; [1]) was 61%, the “% cleavage MMP-7 t = 60 min” value (MMP-7; t = 60 min (Table 9)) was 100% and the “% cleavage MMP-7 t = 60 min” value (MMP-7; [2]) was 100%. For the same substance, the “% cleavage MMP-7 t = 120 min” value (MMP-7; t = 120 min (Table 9)) was 100% and the “% cleavage MMP-7 t = 120 min” value (MMP-7; [3]) was 100%.

In the case of “RGRKSQPLVD ([2Abz]RGRKSQPLVD[Tyr(3-NO2)]-NH2) [LNK041]”, the “% cleavage MMP-9 t = 15 min” value (MMP-9; t = 15 min (Table 9)) is reported as 0%, the “% cleavage MMP-9 t = 15 min” value (MMP-9; [1]) is reported as 0% and the “% cleavage MMP-9 t = 60 min” value (MMP-9; t = 60 min (Table 9)) is reported as 1%. For the same substance, the “% cleavage MMP-9 t = 60 min” value (MMP-9; [2]) was 1%, the “% cleavage MMP-9 t = 120 min” value (MMP-9; t = 120 min (Table 9)) was 1% and the “% cleavage MMP-9 t = 120 min” value (MMP-9; [3]) was 1%. For the same substance, the “% cleavage Matriptase t = 15 min” value (matriptase; [1]) was 100%, the “% cleavage Matriptase t = 60 min” value (matriptase; [2]) was 100% and the “% cleavage Matriptase t = 120 min” value (matriptase; standard conditions (Table 8)) was 100%. For the same substance, the “% cleavage MMP-2 t = 15 min” value (MMP-2; t = 15 min (Table 9)) was 0%, the “% cleavage MMP-2 t = 60 min” value (MMP-2; t = 60 min (Table 9)) was 0% and the “% cleavage MMP-2 t = 60 min” value (MMP-2; [2]) was 0%. The “% cleavage MMP-2 t = 120 min” value (MMP-2; t = 120 min (Table 9)) was 0%, the “% cleavage MMP-2 t = 120 min” value (MMP-2; [3]) was 0% and the “% vcleavage uPA t = 15 min” value (uPA; [1]) was 0%. The “% cleavage uPA t = 60 min” value (uPA; [2]) was 0%, the “% cleavage uPA t = 120 min” value (uPA; [3]) was 0% and the “% cleavage MMP-7 t = 15 min” value (MMP-7; t = 15 min (Table 9)) was 1%. The “% cleavage MMP-7 t = 15 min” value (MMP-7; [1]) was 1%, the “% cleavage MMP-7 t = 60 min” value (MMP-7; t = 60 min (Table 9)) was 4% and the “% cleavage MMP-7 t = 60 min” value (MMP-7; [2]) was 4%. The “% cleavage MMP-7 t = 120 min” value (MMP-7; t = 120 min (Table 9)) was 9% and the “% cleavage MMP-7 t = 120 min” value (MMP-7; [3]) was 9%.
